Results: paper PMC11039405

Biological target: T1, AmrZ (Pseudomonas aeruginosa PAO1) (UniProt G3XCY4)
T1 sequence: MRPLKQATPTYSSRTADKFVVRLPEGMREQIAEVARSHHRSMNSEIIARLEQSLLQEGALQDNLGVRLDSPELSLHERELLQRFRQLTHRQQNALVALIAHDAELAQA
Test: EMSA

**Q.** Which binding does the source give for “GTTATCTGCTTTCGGCCAAGAGATTTGGCTCCTTGCATATTATAAGAACCCCAACACTTCCCGTCGTACCTTGAATGCCCCGCCTAGCGGAGAGGCATGAATACGCTCCGTTTTATTGATTTTCAAAGCCATGAGCACGGAGTCGATTTTATAATAATCAGGATTATCCGACGTGCGCTGA (double strand) [exsA promoter]” here?
**A.** no binding
